The values below come from patent publication US20130017578.

Like-named read-outs stand apart in the source and are kept apart here.

The target in data set [1] is Int-h/218 (parental lambda integrase mutant) Int-h/218 substitutions (not given) (Bacteriophage lambda) (UniProt P03700). To be noted: attB x attP recombination, real-time PCR; reference activity. (In general: Quantitative PCR measures a nucleic acid by following its amplification.)
Data set [2] has as its target Int1 (Int-h/218 mutein) Int-h/218 substitutions (not given),I43A,H61R (Bacteriophage lambda) (UniProt P03700). The data set can be described thus: cell_activity. Conditions: attB x attP GFP reporter in HEK293, relative to Int-h/218.
For data set [3], the target named is Int5 (Int-h/218 mutein) Int-h/218 substitutions (not given),I43A (Bacteriophage lambda) (UniProt P03700). Nature of the data set: cell_activity. To be noted: attB x attP GFP reporter in HEK293, relative to Int-h/218.
Data set [4] deals with Int1 (Int-h/218 mutein) Int-h/218 substitutions (not given),I43A,H61R (Bacteriophage lambda) (UniProt P03700). To be noted: attH x attPH, relative to Int-h/218 on attB x attP.
Data set [5] deals with Int5 (Int-h/218 mutein) Int-h/218 substitutions (not given),I43A (Bacteriophage lambda) (UniProt P03700). Conditions: attH x attPH, relative to Int-h/218 on attB x attP.

As for “CAGCTTTTTTATACTAAGTTG (double strand) [attP core]”, the binding signal stood at 100% in data set [1], 50% in data set [2] (attH x attP <1% activity) and 65% in data set [3] (attH x attP <1% activity).
Regarding “CTGCTTTCTTATACCAAGTGG (double strand) [attH]”, the figures for the binding signal in data set [4] (7-fold over Int-h/218 when translated in vitro (FIG. 4A)) and in data set [5] (9-fold over Int-h/218 on genomic attH (FIG. 4D)) were 140% and 100%, respectively.
On to “CTGCTTTTTTATACTAACTTG (double strand) [attB core]”, for which the figures for the binding signal in data set [1], in data set [2] and in data set [3] were 100%, 50% and 65%, respectively.
With “CAGCTTTCTTATACCAAGTTG (double strand) [attPH]”, the binding signal stood at 140% in data set [4] and 100% in data set [5].
